Experimental findings from patent US20110294748A1 (Janssen / Centocor, published 2011) are described below.

This experiment concerns the target T1, soluble IGF1R (sIGF1R), extracellular domain of human insulin-like growth factor 1 receptor, carboxy-terminal … (human, UniProt P08069 31-932).
T1 construct: Bought from R&D Systems; GenBank NP-000866 is printed for the whole receptor; also called IFG1R
Nature of the experiment: ELISA, culture supernatant on 2 µg/ml coated sIGF1R, Attophos detection. The procedure: The binding of purified peptide-AP fusion proteins to sIGF1R was assessed using ELISA against immobilized sIGF1R. Briefly, bacteria transformed with each peptide-AP fusion expression vector were grown overnight and the following day the cultures were clarified by centrifugation at 4,500 rpm, 4° C. The supernatants were collected and 75 μl of each supernatant was assayed for binding to 2 μg/ml sIGF1R immobilized on ELISA plates. The bound peptides were detected using the Attophos Substrate (Roche, Indianapolis, Ind.) following the manufacturer's recommendation and read using a Molecular Devices M5 plate reader.
On the technique in general: An ELISA detects its analyte on a solid surface through an enzyme-linked reagent.

B1: peptide-Alkaline phosphatase-His6 fusion protein of clone 6 (other)
chain: AECEWPWLTLELCQSTPEMPVLENRAAQGDITTPGGARRLTGDQTAALRDSLSDKPAKNIILLIGDGMGDSEITAARNYAEGAGGFFKGIDALPLTGQYTHYALNKKTGKPDYVTDSAASATAWSTGVKTYNGALGVDIHEKDHPTILEMAKAAGLATGNVSTAELQGATPAALVAHVTSRKCYGPSATSEKCPGNALEKGGKGSITEQLLNARADVTLGGGAKTFAETATAGEWQGKTLREQAQTRGYQLVSDAASLNSVTEANQQKPLLGLFADGNMPVRWLGPKATYHGNIDKPAVTCTPNPQRNDSVPTLAQMTDKAIELLSKNEKGFFLQVEGASIDKQNHAANPCGQIGETVDLDEAVQRALEFAKKEGNTLVIVTADHAHASQIVAPDTKAPGLTQALNTKDGAVMVMSYGNSEEDSQEHTGSQLRIAAYGPHAANVVGLTDQTDLFYTMKAALGLKVPGGSGGGSGGGSGGGSGTPEMPVLENRAAQGDITTPGGARRLTGDQTAALRDSLSDKPAKNIILLIGDGMGDSEITAARNYAEGAGGFFKGIDALPLTGQYTHYALNKKTGKPDYVTDSAASATAWSTGVKTYNGALGVDIHEKDHPTILEMAKAAGLATGNVSTAELQGATPAALVAHVTSRKCYGPSATSEKCPGNALEKGGKGSITEQLLNARADVTLGGGAKTFAETATAGEWQGKTLREQAQTRGYQLVSDAASLNSVTEANQQKPLLGLFADGNMPVRWLGPKATYHGNIDKPAVTCTPNPQRNDSVPTLAQMTDKAIELLSKNEKGFFLQVEGASIDKQNHAANPCGQIGETVDLDEAVQRALEFAKKEGNTLVIVTADHAHASQIVAPDTKAPGLTQALNTKDGAVMVMSYGNSEEDSQEHTGSQLRIAAYGPHAANVVGLTDQTDLFYTMKAALGLKVPGNSHHHHHH
notes: Tested as bacterial culture supernatant; also called peptide-AP fusion clone 6
B1: the binding result is listed as “binds”.

B2: peptide-Alkaline phosphatase-His6 fusion protein of clone 9 (other)
chain: FTCAVYSLSELDCRDTPEMPVLENRAAQGDITTPGGARRLTGDQTAALRDSLSDKPAKNIILLIGDGMGDSEITAARNYAEGAGGFFKGIDALPLTGQYTHYALNKKTGKPDYVTDSAASATAWSTGVKTYNGALGVDIHEKDHPTILEMAKAAGLATGNVSTAELQGATPAALVAHVTSRKCYGPSATSEKCPGNALEKGGKGSITEQLLNARADVTLGGGAKTFAETATAGEWQGKTLREQAQTRGYQLVSDAASLNSVTEANQQKPLLGLFADGNMPVRWLGPKATYHGNIDKPAVTCTPNPQRNDSVPTLAQMTDKAIELLSKNEKGFFLQVEGASIDKQNHAANPCGQIGETVDLDEAVQRALEFAKKEGNTLVIVTADHAHASQIVAPDTKAPGLTQALNTKDGAVMVMSYGNSEEDSQEHTGSQLRIAAYGPHAANVVGLTDQTDLFYTMKAALGLKVPGGSGGGSGGGSGGGSGTPEMPVLENRAAQGDITTPGGARRLTGDQTAALRDSLSDKPAKNIILLIGDGMGDSEITAARNYAEGAGGFFKGIDALPLTGQYTHYALNKKTGKPDYVTDSAASATAWSTGVKTYNGALGVDIHEKDHPTILEMAKAAGLATGNVSTAELQGATPAALVAHVTSRKCYGPSATSEKCPGNALEKGGKGSITEQLLNARADVTLGGGAKTFAETATAGEWQGKTLREQAQTRGYQLVSDAASLNSVTEANQQKPLLGLFADGNMPVRWLGPKATYHGNIDKPAVTCTPNPQRNDSVPTLAQMTDKAIELLSKNEKGFFLQVEGASIDKQNHAANPCGQIGETVDLDEAVQRALEFAKKEGNTLVIVTADHAHASQIVAPDTKAPGLTQALNTKDGAVMVMSYGNSEEDSQEHTGSQLRIAAYGPHAANVVGLTDQTDLFYTMKAALGLKVPGNSHHHHHH
notes: Tested as bacterial culture supernatant; also called peptide-AP fusion clone 9
As to B2, the binding result is given as “binds”.
